Changes are numbered by the printed parent chain. Numbers in names are those of the source. One block for each binder: values may come before it.
Legend:
[1] = target: T1, biotin-labeled human CD154 (human, UniProt P29965 113-261, limits assumed, biotin-labeled); assay: ECL competition: biotinylated CD154, CD3ε homodimer as competitor [1]
T1 construct: also called biotinylated human CD154
T1 sequence (looked up): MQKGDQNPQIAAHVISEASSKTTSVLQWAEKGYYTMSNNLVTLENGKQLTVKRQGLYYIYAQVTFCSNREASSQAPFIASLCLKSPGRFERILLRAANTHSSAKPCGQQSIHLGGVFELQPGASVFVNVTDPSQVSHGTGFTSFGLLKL
Experimental: Next, each obtained IgG was evaluated for its binding to CD3 and human CD154 at the same time by the competition method (electrochemiluminescence method (ECL method)).
A TBST solution containing 0.5% BSA (referred to as a blocking solution; the TBST solution was TBS (manufactured by Takara Bio Inc.) supplemented with 0.1% Tween 20) was added at 150 μL/well to streptavidin plate (MSD K.K.), and the plate was incubated at room temperature for 1 hour or longer. After removal of the blocking solution, each well was washed three times with 250 μL of a TBST solution. The antibody-antigen complex solution was added thereto at 50 L/well, and the plate was incubated at room temperature for 1 hour so that the biotinylated antigen-antibody-detection sulfo-tag antibody complex solution bound via the biotinylated antigen to the streptavidin plate. After removal of the antibody-antigen complex solution, each well was washed three times with a TBST solution, and a solution of 4× READ buffer (MSD K.K.) diluted 2-fold with water was added thereto at 150 μL/well, followed by the detection of the luminescence signal of the sulfo-tag using Sector Imager 2400 (MSD K.K.).

CD3ε homodimer protein = CD3ε homodimer protein (human, UniProt P07766 23-126, limits assumed); assay: SPR Biacore T200, CD3e homodimer on CM4 chip, antibody as analyte, 25 C
Chain of CD3ε homodimer protein (P07766 23-126 limits assumed): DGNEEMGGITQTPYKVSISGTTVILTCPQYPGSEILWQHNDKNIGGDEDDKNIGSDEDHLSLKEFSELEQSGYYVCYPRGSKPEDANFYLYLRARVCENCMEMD
Experimental: An appropriate amount of CD3ε homodimer protein was immobilized onto Sensor chip CM4 (GE Healthcare Japan Corp.) by the amine coupling method. Then, the antibody having an appropriate concentration was injected thereto as an analyte and allowed to interact with the CD3ε homodimer protein on the sensor chip. Then, the sensor chip was regenerated by the injection of 10 mmol/L glycine-HCl (pH 1.5). The assay was conducted at 25° C., and HBS-EP+ (GE Healthcare Japan Corp.) was used as a running buffer. […] Each parameter was calculated using Biacore T200 Evaluation Software (GE Healthcare Japan Corp.).
Specifically, when the amount of the antibody comprising CE115HA000 bound was defined as X and the amount of the H chain one-amino acid altered form bound was defined as Y, a value of Z (ratio of amounts bound)=Y/X was used.

KD ratio (KD of CE115HA000/KD of altered form) (CD3ε homodimer protein): 6.74
B6: CE115HA000 Y59A one-arm antibody (antibody, human IgG1, kappa, L234A L235A, N297A, name in Kabat numbering)
heavy: QVQLVESGGGVVQPGRSLRLSCAASGFTFSNAWMHWVRQAPGKGLEWVAQIKAKSNNYATYAAESVKGRFTISRDDSKNSLYLQMNSLKTEDTAVYYCRYVHYGAYYGVDAWGQGTTVTVSSASTKGPSVFPLAPSSKSTSGGTAALGCLVKDYFPEPVTVSWNSGALTSGVHTFPAVLQSSGLYSLSSVVTVPSSSLGTQTYICNVNHKPSNTKVDKKVEPKSCDKTHTCPPCPAPEAAGGPSVFLFPPKPKDTLMISRTPEVTCVVVDVSHEDPEVKFNWYVDGVEVHNAKTKPREEQYASTYRVVSVLTVLHQDWLNGKEYKCKVSNKALPAPIEKTISKAKGQPREPQVYTLPPSRCELTKNQVSLSCAVKGFYPSDIAVEWESNGQPENNYKTTPPVLDSDGSFFLVSKLTVDKSRWQQGNVFSCSVMHEALHNHYTQKSLSLSPDYKDDDDK
chain: EPKSSDKTHTCPPCPAPELLGGPSVFLFPPKPKDTLMISRTPEVTCVVVDVSHEDPEVKFNWYVDGVEVHNAKTKPREEQYNSTYRVVSVLTVLHQDWLNGKEYKCKVSNKALPAPIEKTISKAKGQPREPQVCTLPPSRDELTKNQVSLWCLVKGFYPSDIAVEWESNGQPENNYKTTPPVLDSDGSFFLYSKLTVDKSRWQQGNVFSCSVMHEALHNRYTQKSLSLSP
light: DIVMTQSPLSLPVTPGEPASISCRSSQSLVHSNRNTYLHWYQQKPGQAPRLLIYKVSNRFSGVPDRFSGSGSGTDFTLKISRVEAEDVGVYYCGQGTQVPYTFGQGTKLEIKRTVAAPSVFIFPPSDEQLKSGTASVVCLLNNFYPREAKVQWKVDNALQSGNSQESVTEQDSKDSTYSLSSTLTLSKADYEKHKVYACEVTHQGLSSPVTKSFNRGEC

KD ratio (KD of CE115HA000/KD of altered form) (CD3ε homodimer protein): 64.7
B9: CE115HA000 Y97D one-arm antibody (antibody, human IgG1, kappa, L234A L235A, N297A, name in Kabat numbering)
heavy: B6 heavy with A62Y, Y103D
chain: B6 chain
light: B6 light

KD ratio (KD of CE115HA000/KD of altered form) (CD3ε homodimer protein): 23
B10: CE115HA000 W33A one-arm antibody (antibody, human IgG1, kappa, L234A L235A, N297A, name in Kabat numbering)
heavy: B6 heavy with W33A, A62Y
chain: B6 chain
light: B6 light

KD ratio (KD of CE115HA000/KD of altered form) (CD3ε homodimer protein): 0.68
B11: CE115HA000 W33F one-arm antibody (antibody, human IgG1, kappa, L234A L235A, N297A, name in Kabat numbering)
heavy: B6 heavy with W33F, A62Y
chain: B6 chain
light: B6 light

KD ratio (KD of CE115HA000/KD of altered form) (CD3ε homodimer protein): 0.34
B12: CE115HA000 N76S one-arm antibody (antibody, human IgG1, kappa, L234A L235A, N297A, name in Kabat numbering)
heavy: B6 heavy with A62Y, N79S
chain: B6 chain
light: B6 light

KD ratio (KD of CE115HA000/KD of altered form) (CD3ε homodimer protein): 9.9
B13: CE115HA000 T57N one-arm antibody (antibody, human IgG1, kappa, L234A L235A, N297A, name in Kabat numbering)
heavy: B6 heavy with T60N, A62Y
chain: B6 chain
light: B6 light

KD ratio (KD of CE115HA000/KD of altered form) (CD3ε homodimer protein): 19.8
B18: CE115HA000 K52E one-arm antibody (antibody, human IgG1, kappa, L234A L235A, N297A, name in Kabat numbering)
heavy: B6 heavy with K52E, A62Y
chain: B6 chain
light: B6 light

KD ratio (KD of CE115HA000/KD of altered form) (CD3ε homodimer protein): 0.67
B19: CE115HA000 S52cA one-arm antibody (antibody, human IgG1, kappa, L234A L235A, N297A, name in Kabat numbering)
heavy: B6 heavy with S55A, A62Y
chain: B6 chain
light: B6 light

More lines, now with the values behind:

B1: 154R4B07#1 (antibody, human IgG1, kappa, L234A L235A, N297A)
heavy: QVQLVESGGGLVQPGRSLRLSCAASGFTFSNAWMHWVRQAPGKGLEWVAQIKDRGNNYAAYYAESVKGRFTISRDDSKNSIYLQMNSLKTEDTAVYYCRYVHYGSYFFASFYFGVDIWGQGTTVTVSSASTKGPSVFPLAPSSKSTSGGTAALGCLVKDYFPEPVTVSWNSGALTSGVHTFPAVLQSSGLYSLSSVVTVPSSSLGTQTYICNVNHKPSNTKVDKKVEPKSCDKTHTCPPCPAPEAAGGPSVFLFPPKPKDTLMISRTPEVTCVVVDVSHEDPEVKFNWYVDGVEVHNAKTKPREEQYASTYRVVSVLTVLHQDWLNGKEYKCKVSNKALPAPIEKTISKAKGQPREPQVYTLPPSRCELTKNQVSLSCAVKGFYPSDIAVEWESNGQPENNYKTTPPVLDSDGSFFLVSKLTVDKSRWQQGNVFSCSVMHEALHNHYTQKSLSLSPDYKDDDDK
chain: B6 chain
light: B6 light
notes: One-arm antibody
Relative ECL reaction (to no antigen coating), CD3ε[+] [1]: 1

B2: 154R3B01#1 (antibody, human IgG1, kappa, L234A L235A, N297A)
heavy: QVQLVESGGGLVQPGRSLRLSCAASGFTFSSAWMHWVRQAPGKGLEWVAQIKDKQNQYNAYYAESVKGRFTISRDDSKNSIYLQMNSLKTEDTAVYYCRYVHYATSDGFLPYFGVDAWGQGTTVTVSSASTKGPSVFPLAPSSKSTSGGTAALGCLVKDYFPEPVTVSWNSGALTSGVHTFPAVLQSSGLYSLSSVVTVPSSSLGTQTYICNVNHKPSNTKVDKKVEPKSCDKTHTCPPCPAPEAAGGPSVFLFPPKPKDTLMISRTPEVTCVVVDVSHEDPEVKFNWYVDGVEVHNAKTKPREEQYASTYRVVSVLTVLHQDWLNGKEYKCKVSNKALPAPIEKTISKAKGQPREPQVYTLPPSRCELTKNQVSLSCAVKGFYPSDIAVEWESNGQPENNYKTTPPVLDSDGSFFLVSKLTVDKSRWQQGNVFSCSVMHEALHNHYTQKSLSLSPDYKDDDDK
chain: B6 chain
light: B6 light
notes: One-arm antibody
Relative ECL reaction (to no antigen coating), CD3ε[+] [1]: 18

B3: 154R3A01#4 (antibody, human IgG1, kappa, L234A L235A, N297A)
heavy: QVQLVESGGGLVQPGRSLRLSCAASGFTFSNAWMHWVRQAPGKGLEWVAQIKDRVNQYANYYAECVKGRFTISRDDSKNSIYLQMNSLKTEDTAVYYCRYVHYGLTGYFSGQGGVDAWGQGTTVTVSSASTKGPSVFPLAPSSKSTSGGTAALGCLVKDYFPEPVTVSWNSGALTSGVHTFPAVLQSSGLYSLSSVVTVPSSSLGTQTYICNVNHKPSNTKVDKKVEPKSCDKTHTCPPCPAPEAAGGPSVFLFPPKPKDTLMISRTPEVTCVVVDVSHEDPEVKFNWYVDGVEVHNAKTKPREEQYASTYRVVSVLTVLHQDWLNGKEYKCKVSNKALPAPIEKTISKAKGQPREPQVYTLPPSRCELTKNQVSLSCAVKGFYPSDIAVEWESNGQPENNYKTTPPVLDSDGSFFLVSKLTVDKSRWQQGNVFSCSVMHEALHNHYTQKSLSLSPDYKDDDDK
chain: B6 chain
light: B6 light
notes: One-arm antibody
Relative ECL reaction (to no antigen coating), CD3ε[+] [1]: 4

B4: 154R3A01#2 (antibody, human IgG1, kappa, L234A L235A, N297A)
heavy: B3 heavy with C65S, F70L
chain: B6 chain
light: B6 light
notes: One-arm antibody
Relative ECL reaction (to no antigen coating), CD3ε[+] [1]: 4

B5: 154R3A01#3 (antibody, human IgG1, kappa, L234A L235A, N297A)
heavy: B3 heavy with T28A, C65S
chain: B6 chain
light: B6 light
notes: One-arm antibody
Relative ECL reaction (to no antigen coating), CD3ε[+] [1]: 19

B7: CE115HA000 E61Q one-arm antibody (antibody, human IgG1, kappa, L234A L235A, N297A, name in Kabat numbering)
heavy: B6 heavy with A62Y, E64Q
chain: B6 chain
light: B6 light
KD ratio (KD of CE115HA000/KD of altered form) (CD3ε homodimer protein): 0.85

B8: CE115HA000 I51E one-arm antibody (antibody, human IgG1, kappa, L234A L235A, N297A, name in Kabat numbering)
heavy: B6 heavy with I51E, A62Y
chain: B6 chain
light: B6 light
KD ratio (KD of CE115HA000/KD of altered form) (CD3ε homodimer protein): 0.84

B14: 154R4F08#1 (antibody, human IgG1, kappa, L234A L235A, N297A)
heavy: B1 heavy with R16H
chain: B6 chain
light: B6 light
notes: One-arm antibody
Relative ECL reaction (to no antigen coating), CD3ε[+] [1]: 1

B15: 154R3A01#1 (antibody, human IgG1, kappa, L234A L235A, N297A)
heavy: B3 heavy with C65S
chain: B6 chain
light: B6 light
notes: One-arm antibody
Relative ECL reaction (to no antigen coating), CD3ε[+] [1]: 21

B16: CE115HA000 G98D one-arm antibody (antibody, human IgG1, kappa, L234A L235A, N297A, name in Kabat numbering)
heavy: B6 heavy with A62Y, G104D
chain: B6 chain
light: B6 light
KD ratio (KD of CE115HA000/KD of altered form) (CD3ε homodimer protein): 2.35

B17: CE115HA000 D101R one-arm antibody (antibody, human IgG1, kappa, L234A L235A, N297A, name in Kabat numbering)
heavy: B6 heavy with A62Y, D110R
chain: B6 chain
light: B6 light
KD ratio (KD of CE115HA000/KD of altered form) (CD3ε homodimer protein): 5.66

Reference: patent publication US20220040297A1 (Chugai, published 2022)
